Target: T1, SARS-CoV-2 S1 protein, His Tag (SARS-CoV-2, UniProt P0DTC2 16-685)
T1 construct: domain: S1; Bought
Test: ELISA, His-tagged viral protein captured on nickel plates (6.25-50 pmol/mL)

B1: Purified C-reactive protein (CRP) (other)
chain: QTDMSRKAFVFPKESDTSYVSLKAPLTKPLKAFTVCLHFYTELSSTRGYSIFSYATKRQDNEILIFWSKDIGYSFTVGGSEILFEVPEVTVAPVHICTSWESASGIVEFWVDGKPRVRKSLKKGYTVGAEASIILGQEQDSFGGNFEGSQSLVGDIGNVNMWDFVLSPDEINTIYLGGPFSPNVLNWRALKYEVQGEVFTKPQLWP
- binding result: no binding (tested: CRP 3 µg/mL)

From patent US20240123029A1 (HUMANITAS MIRASOLE S P A, published 2024)
